Test results: PMC5453243

Substrate: CCn1c(=NN=c2sc3cc(S(=O)(=O)O)ccc3n2CC)sc2cc(S(=O)(=O)O)ccc21
Experiment: purified protein
Conditions: 1 mM H2O2, 50 mM KH2PO4 pH 6.5, 30 °C

B1: soluble HRP P. pastoris (Armoracia rusticana) (protein)
chain: QLTPTFYDNSCPNVSNIVRDTIVNELRSDPRIAASILRLHFHDCFVNGCDASILLDNTTSFRTEKDAFGNANSARGFPVIDRMKAAVESACPRTVSCADLLTIAAQQSVTLAGGPSWRVPLGRRDSLQAFLDLANANLPAPFFTLPQLKDSFRNVGLNRSSDLVALSGGHTFGKNQCRFIMDRLYNFSNTGLPDPTLNTTYLQTLRGLCPLNGNLSALVDFDLRTPTIFDNKYYVNLEEQKGLIQSDQELFSSPNATDTIPLVRSFANSTQTFFNAFVEAMDRMGNITPLTGTQGQIRLNCRVVNSNS
- Vmax: 152 µmol/min/mg

B2: refolded HRP E. coli (HRP C1A refolded from inclusion bodies) (Armoracia rusticana) (protein)
chain: B1 chain
- Km (ABTS 0.005–10 mM): 1250 ± 100 µM
- Vmax (ABTS 0.005–10 mM): 62.5 µmol/min/mg
